{"source": "the supplement of paper PMC9732359", "note": "± gives the uncertainty stated by the source."}
{"assay": "protein stability index of a GFP-peptide fusion (yeast GPS) (PSI 1-4); higher = more stable; sorted into four equal gates, so the index is relative within each strain", "conditions": "pdr5∆", "summary_of_the_method": "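Plasmids in a pooled yeast library fused tiled 17-residue yeast protein peptides downstream of GFP and also expressed Cherry. Mid-log cultures grown without leucine were sorted into four equal gates by GFP/Cherry fluorescence ratio. Each gate's plasmids were PCR-amplified and Illumina-sequenced, and reads were matched to strains by barcodes. The protein stability index is derived by multiplying each gate's read frequency by its gate number and summing the results.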"}
{"sequence": "LLVPLALLTKRLYPHWD [CSN12]", "protein stability index": "2.01 ± 0.063"}
{"sequence": "LLYELTAFKATVFFLIR [YJL039C/NUP192]", "protein stability index": "2.36 ± 0.09"}
{"sequence": "LMCLSSKYCEKSLPLLI [YCS4]", "protein stability index": "2.71 ± 0.076"}
{"sequence": "LMQNMMNMFGGGMGGGM [SRP54]", "protein stability index": "2.53 ± 0.063"}
{"sequence": "LMSCISVGTDPMPIITF [RPB2]", "protein stability index": "1.71 ± 0.056"}
{"sequence": "LMTSHTKGDTSKATGAP [RTT102]", "protein stability index": "3.34 ± 0.079"}
{"sequence": "LNAANYNIDANVIDTQR [ECM29]", "protein stability index": "2.37 ± 0.15"}
{"sequence": "LNCGNGMGIGFIDHHAA [POP1]", "protein stability index": "3.13 ± 0.07"}
{"sequence": "LNEEAVIFLSSLLTLVG [YJL039C/NUP192]", "protein stability index": "2.72 ± 0.086"}
{"sequence": "LNELYQTQQDLPKVRYN [NSL1]", "protein stability index": "3.12 ± 0.052"}
{"sequence": "LNESDCLEACSFILSSL [YDL116W/NUP84]", "protein stability index": "2.58 ± 0.052"}
{"sequence": "LNGREVKAILMQRHVKV [RPS4A]", "protein stability index": "1.25 ± 0.063"}
{"sequence": "LNIRIQTYGETTAVDAL [RPC19]", "protein stability index": "1.09 ± 0.11"}
{"sequence": "LNKGKKVTSMTPAPKIS [RPL36A]", "protein stability index": "2.98 ± 0.14"}
{"sequence": "LNLKFKEKWPSLELQSF [YML103C/NUP188]", "protein stability index": "2.54 ± 0.14"}
{"sequence": "LNLPLQFSLPNGDNSTT [SNF12]", "protein stability index": "1.99 ± 0.043"}
{"sequence": "LNNTHVISSGPLAAGNF [RPC53]", "protein stability index": "3 ± 0.1"}
{"sequence": "LNRQNDITDGKDYHTLA [RPS18A]", "protein stability index": "3.33 ± 0.061"}
{"sequence": "LNSTLESLYDLIEFQPS [MED6]", "protein stability index": "2.85 ± 0.046"}
{"sequence": "LNTLFNPVTLNEDSKAF [NUT1]", "protein stability index": "1.84 ± 0.057"}
{"sequence": "LNVAEIITSGRDTREVL [ARP9]", "protein stability index": "3.25 ± 0.089"}
{"sequence": "LNVKCTRNPDAPKGSTD [RPC40]", "protein stability index": "3.1 ± 0.11"}
{"sequence": "LNVPVFQIVIEPLAIAL [ARP7]", "protein stability index": "1.66 ± 0.055"}
{"sequence": "LNVSNTKENGDFTLPED [PRP8]", "protein stability index": "3.14 ± 0.11"}
{"sequence": "LPGELAKHAVSEGTRAV [HTB1]", "protein stability index": "3.46 ± 0.12"}
{"sequence": "LPLLYNFNPDNGFAPIS [FAS1]", "protein stability index": "2.63 ± 0.054"}
{"sequence": "LPLQPIEIDYTVRVDKA [SNF12]", "protein stability index": "2.19 ± 0.055"}
{"sequence": "LPPEKIYSPLHSFIKML [SIR2]", "protein stability index": "1.88 ± 0.032"}
{"sequence": "LPQFRSSIQESLLSLVG [ECM29]", "protein stability index": "2.04 ± 0.048"}
{"sequence": "LPRELPKLLDALNKISK [SNU114]", "protein stability index": "2.74 ± 0.083"}
{"sequence": "LPTDGGLTSRLQRQQRK [POP4]", "protein stability index": "3.3 ± 0.17"}
{"sequence": "LPYAIAGSGSTFIYGYC [PRE3]", "protein stability index": "1.42 ± 0.084"}
{"sequence": "LPYPTYWSDKKADTDTL [SNF5]", "protein stability index": "2.92 ± 0.11"}
{"sequence": "LQCISQINQGVPSAKPL [SNF11]", "protein stability index": "1.95 ± 0.081"}
{"sequence": "LQDDEDHKFPIRENKVT [BRN1]", "protein stability index": "3.07 ± 0.083"}
{"sequence": "LQESINHVMYTEVSRKS [ECM29]", "protein stability index": "2.74 ± 0.062"}
{"sequence": "LQGEVENIAQMKPKAEK [SMC4]", "protein stability index": "3.4 ± 0.12"}
{"sequence": "LQIAQLTLKHRQNKVQH [RPN10]", "protein stability index": "2.23 ± 0.071"}
{"sequence": "LQIHSRKMTTDDDINWQ [RPT5]", "protein stability index": "3.12 ± 0.093"}
{"sequence": "LQIKRDVLDDLYRKLQR [CSE2]", "protein stability index": "3.11 ± 0.069"}
{"sequence": "LQILAMLLLNIFISSDH [YMR129W/POM152]", "protein stability index": "1.36 ± 0.061"}
{"sequence": "LQKRVIEHNLRVISEYY [RPN5]", "protein stability index": "2.27 ± 0.11"}
{"sequence": "LQLETPAEVGRAIRSEK [BRR2]", "protein stability index": "2.92 ± 0.063"}
{"sequence": "LQPLEEGLIIDTDKLPI [SIN4]", "protein stability index": "2.79 ± 0.074"}
{"sequence": "LQRDLIQTKEQVSINSN [YIL149C/MLP2]", "protein stability index": "3.12 ± 0.089"}
{"sequence": "LQRTILNRIINHMLIDS [RGR1]", "protein stability index": "2.4 ± 0.081"}
{"sequence": "LQYLDKHIKNLEDDSLL [RPN12]", "protein stability index": "3.42 ± 0.081"}
{"sequence": "LRAIEKNDDNSCRNPEH [YIL149C/MLP2]", "protein stability index": "3.25 ± 0.088"}
{"sequence": "LRDYTTVPRIVQLLSKS [RPN2]", "protein stability index": "1.98 ± 0.053"}
{"sequence": "LRELSCCINAAFLALVD [RRP46]", "protein stability index": "2.81 ± 0.074"}
{"sequence": "LREYLNLPEHIVPGTYI [RPS10A]", "protein stability index": "3.08 ± 0.064"}
{"sequence": "LRFPEHTSSGSVSFKVF [BRR2]", "protein stability index": "1.51 ± 0.054"}
{"sequence": "LRIELQSVYNDEKLKTE [SRB8]", "protein stability index": "3.23 ± 0.24"}
{"sequence": "LRKIDMLQKKLVEVEDE [SRB7]", "protein stability index": "3.45 ± 0.11"}
{"sequence": "LRLKPGRKYTTLGKLST [RPL16B]", "protein stability index": "2.64 ± 0.062"}
{"sequence": "LRLVDDDENNPSHYPHP [RRP6]", "protein stability index": "2.92 ± 0.093"}
{"sequence": "LRSTEYSKSFEQFKMVS [POP1]", "protein stability index": "2.63 ± 0.12"}
{"sequence": "LSALFTISSKPDILATD [YCS4]", "protein stability index": "2.78 ± 0.14"}
{"sequence": "LSEAWRCWKANIPWDVP [PRP8]", "protein stability index": "2.16 ± 0.098"}
{"sequence": "LSEDVNLETLVTTKDDL [RPT2]", "protein stability index": "2.87 ± 0.17"}
{"sequence": "LSEPLIKIGIRVMKSLS [YCG1]", "protein stability index": "1.98 ± 0.052"}
{"sequence": "LSEWEEYLKGSESQLNS [YCS4]", "protein stability index": "3.65 ± 0.13"}
{"sequence": "LSHIVYFLVLSPYGNLQ [RPN5]", "protein stability index": "1.33 ± 0.055"}
{"sequence": "LSHYAKIRPWRTFRLNE [RPO31]", "protein stability index": "2.4 ± 0.055"}
{"sequence": "LSIWIKNYPEYFLKVTF [IRR1]", "protein stability index": "1.77 ± 0.037"}
{"sequence": "LSKIKFPESIWKDFTVE [YCG1]", "protein stability index": "1.89 ± 0.04"}
{"sequence": "LSKRQKRKSAQEPELSL [SMC4]", "protein stability index": "3.15 ± 0.078"}
{"sequence": "LSLVYEIGGSDLKESMV [ECM29]", "protein stability index": "3.32 ± 0.12"}
{"sequence": "LSRPYKALKTNINFASG [CDC53]", "protein stability index": "2.61 ± 0.062"}
{"sequence": "LTDPMTVMFFYHNKHMM [DIB1]", "protein stability index": "2.04 ± 0.061"}
{"sequence": "LTHSTPKNFGIGQAVQP [RPL8A]", "protein stability index": "3.01 ± 0.045"}
{"sequence": "LTKFRQKLMQLVVLTDV [RGR1]", "protein stability index": "1.16 ± 0.074"}
{"sequence": "LTLKHRQNKVQHQRIVA [RPN10]", "protein stability index": "1.97 ± 0.11"}
{"sequence": "LTNEDPPGLMYLKAFDK [SSN2]", "protein stability index": "2.61 ± 0.26"}
{"sequence": "LTPIQKKIMDETPSRLL [ITC1]", "protein stability index": "3.39 ± 0.062"}
{"sequence": "LTQEELERIVQIMQNPT [RPS18A]", "protein stability index": "3.08 ± 0.11"}
{"sequence": "LTQGINGKEVPLAKIYL [MED1]", "protein stability index": "2.95 ± 0.17"}
{"sequence": "LTSNISSLVRSCGEEEF [REC8]", "protein stability index": "2.78 ± 0.13"}
{"sequence": "LTSQAPQTTQMFQSQSQ [YDL088C/ASM4]", "protein stability index": "3.16 ± 0.071"}
{"sequence": "LTWLSSFSVCKIRCFRY [IRR1]", "protein stability index": "1.59 ± 0.054"}
{"sequence": "LTYDKDLTNNPQDDDSQ [MTR3]", "protein stability index": "3.21 ± 0.099"}
{"sequence": "LTYKSELSKSRALQENG [YMR153W/NUP53]", "protein stability index": "1.95 ± 0.041"}
{"sequence": "LVAAFIASLERELILAK [YCG1]", "protein stability index": "2.21 ± 0.092"}
{"sequence": "LVALSNEPAARLGSEAD [FAS2]", "protein stability index": "3.37 ± 0.073"}
{"sequence": "LVDSLATFTSIELTSYE [RPN7]", "protein stability index": "2.08 ± 0.061"}
{"sequence": "LVEKVYARFKNDFFPGE [ITC1]", "protein stability index": "3.36 ± 0.1"}
{"sequence": "LVHDGLARGLRESTKAL [RPS12]", "protein stability index": "3.52 ± 0.15"}
{"sequence": "LVHDVVYDFYGRHVATC [YGL100W/SEH1]", "protein stability index": "1.69 ± 0.06"}
{"sequence": "LVNRKPIPFEFQAVIQK [SNF2]", "protein stability index": "2.73 ± 0.057"}
{"sequence": "LVPKRCLFESLSNEAAL [RPO31]", "protein stability index": "2.84 ± 0.2"}
{"sequence": "LVPQLGHVGSVQISNIP [PRP8]", "protein stability index": "2.3 ± 0.065"}
{"sequence": "LVPTASFFIASQLQEQF [FAS1]", "protein stability index": "1.88 ± 0.053"}
{"sequence": "LVQKFGGADQVTRTQQW [SWI1]", "protein stability index": "3.06 ± 0.088"}
{"sequence": "LVQLPKSAMDTFKSVSK [POP3]", "protein stability index": "2.85 ± 0.044"}
{"sequence": "LVRDSKPSKPFNVDDVL [MED8]", "protein stability index": "2.57 ± 0.044"}
{"sequence": "LVRELYQWRDLIARRDD [RRP6]", "protein stability index": "2.77 ± 0.062"}
{"sequence": "LVSEARTLWPEFIPPDP [SSN8]", "protein stability index": "2.8 ± 0.043"}
{"sequence": "LVSTLTTGISSTGAADG [SMC2]", "protein stability index": "2.65 ± 0.088"}
{"sequence": "LVVLTDVVERLHKNFES [RGR1]", "protein stability index": "2.74 ± 0.073"}
{"sequence": "LYDLRASYAKIEIKISD [SNU114]", "protein stability index": "2.72 ± 0.084"}
{"sequence": "LYDNFVSKFYDKINQLS [RPN9]", "protein stability index": "2.69 ± 0.077"}
{"sequence": "LYGTAIGARSQGAKTYL [PRE5]", "protein stability index": "3.21 ± 0.079"}
{"sequence": "LYLKVIPMDFIRNVLVT [SSN2]", "protein stability index": "1.11 ± 0.16"}
{"sequence": "LYNDNNKNNNNRHNLLN [SWI1]", "protein stability index": "1.96 ± 0.062"}
